Experimental findings from the supplement of paper PMC5998384 are described below.

For series [1], the system named is HeLa Kyoto. The series is described as follows: melting temperature (median over replicates), in situ; higher = more thermally stable.
In series [2] the test system is HeLa Kyoto. In words: solubility in G1/S (NP-40 vs SDS abundance) (log2 ratio); higher = more soluble. The settings on record: cell cycle stage: G1/S.
For series [3], the system named is HeLa Kyoto. The series is described as follows: solubility change mitosis vs G1/S (difference of NP-40 vs SDS log2 ratios) (log2 ratio difference); higher = more soluble in mitosis.
In series [4] the test system is HeLa Kyoto. In words: thermal stability score vs G1/S (z-score of summed log2 fold changes over temperatures); higher = more thermally stable than in G1/S.
The mark [5] stands for this setting: cell cycle stage: early G1 (4.5 h after nocodazole release).
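Wherever melting temperature (median over replicates), in situ is given: HeLa Kyoto cells synchronized by double thymidine or nocodazole block, proteins quantified by TMT10plex mass spectrometry, three independent biological replicates.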
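Wherever solubility change mitosis vs G1/S (difference of NP-40 vs SDS log2 ratios) is given: synchronized HeLa Kyoto cells (double thymidine block for G1/S, nocodazole release for mitosis), protein amounts in NP-40 versus SDS lysates quantified by mass spectrometry, three biological replicates.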
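Wherever solubility in G1/S (NP-40 vs SDS abundance) is given: HeLa Kyoto cells arrested at G1/S by double thymidine block, proteins quantified by TMT10plex mass spectrometry in mild NP-40 versus SDS extracts, three biological replicates.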
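Wherever thermal stability score vs G1/S (z-score of summed log2 fold changes over temperatures) is given: synchronized HeLa Kyoto cells, proteins quantified by TMT10plex mass spectrometry, three biological replicates, mitosis taken 0.5 h after nocodazole release, G1/S directly after double thymidine block.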

Consider “MLQTLYDYFWWERLWLPVNLTWADLEDRDGRVYAKASDLYITLPLALLFLIVRYFFELYVATPLAALLNIKEKTRLRAPPNATLEHFYLTSGKQPKQVEVELLSRQSGLSGRQVERWFRRRRNQDRPSLLKKFREASWRFTFYLIAFIAGMAVIVDKPWFYDMKKVWEGYPIQSTIPSQYWYYMIELSFYWSLLFSIASDVKRKDFKEQIIHHVATIILISFSWFANYIRAGTLIMALHDSSDYLLESAKMFNYAGWKNTCNNIFIVFAIVFIITRLVILPFWILHCTLVYPLELYPAFFGYYFFNSMMGVLQLLHIFWAYLILRMAHKFITGKLVEDERSDREETESSEGEEAAAGGGAKSRPLANGHPILNNNHRKND [CERS2]”, for which the results for the melting temperature in the series with HeLa Kyoto [1] (cell cycle stage: G1/S) and in the series with HeLa Kyoto [1] (cell cycle stage: mitosis) were 52.7 °C and 52.9 °C, respectively. Further, the “solubility in G1/S (log2)” value in the series with HeLa Kyoto [2] turned out to be 0.0784. For the same sequence, the “solubility change mitosis (log2)” value with HeLa Kyoto [3] was -0.158. Also, the figures for the thermal stability score with HeLa Kyoto [4] (setting [5]) and in the series with HeLa Kyoto [4] (cell cycle stage: mitosis) were -0.502 and -0.489, respectively.

Consider “MLRAPGCLLRTSVAPAAALAAALLSSLARCSLLEPRDPVASSLSPYFGTKTRYEDVNPVLLSGPEAPWRDPELLEGTCTPVQLVALIRHGTRYPTVKQIRKLRQLHGLLQARGSRDGGASSTGSRDLGAALADWPLWYADWMDGQLVEKGRQDMRQLALRLASLFPALFSRENYGRLRLITSSKHRCMDSSAAFLQGLWQHYHPGLPPPDVADMEFGPPTVNDKLMRFFDHCEKFLTEVEKNATALYHVEAFKTGPEMQNILKKVAATLQVPVNDLNADLIQVAFFTCSFDLAIKGVKSPWCDVFDIDDAKVLEYLNDLKQYWKRGYGYTINSRSSCTLFQDIFQHLDKAVEQKQRSQPISSPVILQFGHAETLLPLLSLMGYFKDKEPLTAYNYKKQMHRKFRSGLIVPYASNLIFVLYHCENAKTPKEQFRVQMLLNEKVLPLAYSQETVSFYEDLKNHYKDILQSCQTSEECELARANSTSDEL [MINPP1]”, for which the melting temperature is 54.4 °C in the series on HeLa Kyoto [1] (cell cycle stage: G1/S) and 55.7 °C with HeLa Kyoto [1] (cell cycle stage: mitosis). In addition, the “solubility in G1/S (log2)” value in the series on HeLa Kyoto [2] turned out to be 0.459. Besides, the “solubility change mitosis (log2)” value in the series with HeLa Kyoto [3] was -0.069. Besides, the thermal stability score in the series with HeLa Kyoto [4] (setting [5]) worked out at 4.83; in the series on HeLa Kyoto [4] (cell cycle stage: mitosis) it was 4.74.

In the case of “MLRFLAPRLLSLQGRTARYSSAAALPSPILNPDIPYNQLFINNEWQDAVSKKTFPTVNPTTGEVIGHVAEGDRADVDRAVKAAREAFRLGSPWRRMDASERGRLLNRLADLVERDRVYLASLETLDNGKPFQESYALDLDEVIKVYRYFAGWADKWHGKTIPMDGQHFCFTRHEPVGVCGQIIPWNFPLVMQGWKLAPALATGNTVVMKVAEQTPLSALYLASLIKEAGFPPGVVNIITGYGPTAGAAIAQHVDVDKVAFTGSTEVGHLIQKAAGDSNLKRVTLELGGKSPSIVLADADMEHAVEQCHEALFFNMGQCCCAGSRTFVEESIYNEFLERTVEKAKQRKVGNPFELDTQQGPQVDKEQFERVLGYIQLGQKEGAKLLCGGERFGERGFFIKPTVFGGVQDDMRIAKEEIFGPVQPLFKFKKIEEVVERANNTRYGLAAAVFTRDLDKAMYFTQALQAGTVWVNTYNIVTCHTPFGGFKESGNGRELGEDGLKAYTEVKTVTIKVPQKNS [ALDH1B1]”, the melting temperature came to 52.6 °C with HeLa Kyoto [1] (cell cycle stage: G1/S) and 52.8 °C in the series with HeLa Kyoto [1] (cell cycle stage: mitosis). Besides, in the series on HeLa Kyoto [2], the “solubility in G1/S (log2)” value is 0.229. Further, the “solubility change mitosis (log2)” value in the series with HeLa Kyoto [3] is -0.0523. The values for the thermal stability score in the series with HeLa Kyoto [4] (setting [5]) and with HeLa Kyoto [4] (cell cycle stage: mitosis) were -1.97 and -1.54, respectively.

Regarding “MLRLPTVFRQMRPVSRVLAPHLTRAYAKDVKFGADARALMLQGVDLLADAVAVTMGPKGRTVIIEQSWGSPKVTKDGVTVAKSIDLKDKYKNIGAKLVQDVANNTNEEAGDGTTTATVLARSIAKEGFEKISKGANPVEIRRGVMLAVDAVIAELKKQSKPVTTPEEIAQVATISANGDKEIGNIISDAMKKVGRKGVITVKDGKTLNDELEIIEGMKFDRGYISPYFINTSKGQKCEFQDAYVLLSEKKISSIQSIVPALEIANAHRKPLVIIAEDVDGEALSTLVLNRLKVGLQVVAVKAPGFGDNRKNQLKDMAIATGGAVFGEEGLTLNLEDVQPHDLGKVGEVIVTKDDAMLLKGKGDKAQIEKRIQEIIEQLDVTTSEYEKEKLNERLAKLSDGVAVLKVGGTSDVEVNEKKDRVTDALNATRAAVEEGIVLGGGCALLRCIPALDSLTPANEDQKIGIEIIKRTLKIPAMTIAKNAGVEGSLIVEKIMQSSSEVGYDAMAGDFVNMVEKGIIDPTKVVRTALLDAAGVASLLTTAEVVVTEIPKEEKDPGMGAMGGMGGGMGGGMF [HSPD1]”, the melting temperature in the series on HeLa Kyoto [1] (cell cycle stage: G1/S) came to 55.2 °C; with HeLa Kyoto [1] (cell cycle stage: mitosis) it was 55 °C. In addition, the “solubility in G1/S (log2)” value in the series with HeLa Kyoto [2] stood at 0.316. Moreover, the “solubility change mitosis (log2)” value with HeLa Kyoto [3] is 0.129. For the same sequence, the thermal stability score in the series with HeLa Kyoto [4] (setting [5]) is 1.84; with HeLa Kyoto [4] (cell cycle stage: mitosis), -0.583.

Take “MLRLVPTGARAIVDMSYARHFLDFQGSAIPQAMQKLVVTRLSPNFREAVTLSRDCPVPLPGDGDLLVRNRFVGVNASDINYSAGRYDPSVKPPFDIGFEGIGEVVALGLSASARYTVGQAVAYMAPGSFAEYTVVPASIATPVPSVKPEYLTLLVSGTTAYISLKELGGLSEGKKVLVTAAAGGTGQFAMQLSKKAKCHVIGTCSSDEKSAFLKSLGCDRPINYKTEPVGTVLKQEYPEGVDVVYESVGGAMFDLAVDALATKGRLIVIGFISGYQTPTGLSPVKAGTLPAKLLKKSASVQGFFLNHYLSKYQAAMSHLLEMCVSGDLVCEVDLGDLSPEGRFTGLESIFRAVNYMYMGKNTGKIVVELPHSVNSKL [ZADH2]”: the figures for the melting temperature in the series with HeLa Kyoto [1] (cell cycle stage: G1/S) and in the series on HeLa Kyoto [1] (cell cycle stage: mitosis) were 52.9 °C and 53.5 °C, respectively. In addition, the “solubility in G1/S (log2)” value with HeLa Kyoto [2] amounted to 0.198. Further, the “solubility change mitosis (log2)” value in the series with HeLa Kyoto [3] was -0.199. The values for the thermal stability score in the series on HeLa Kyoto [4] (setting [5]) and with HeLa Kyoto [4] (cell cycle stage: mitosis) were 0.549 and 1.57, respectively.

As to “MLRSCAARLRTLGALCLPPVGRRLPGSEPRPELRSFSSEEVILKDCSVPNPSWNKDLRLLFDQFMKKCEDGSWKRLPSYKRTPTEWIQDFKTHFLDPKLMKEEQMSQAQLFTRSFDDGLGFEYVMFYNDIEKRMVCLFQGGPYLEGPPGFIHGGAIATMIDATVGMCAMMAGGIVMTANLNINYKRPIPLCSVVMINSQLDKVEGRKFFVSCNVQSVDEKTLYSEATSLFIKLNPAKSLT [THEM4]”, the results for the melting temperature in the series with HeLa Kyoto [1] (cell cycle stage: G1/S) and in the series on HeLa Kyoto [1] (cell cycle stage: mitosis) were 54.7 °C and 56.2 °C, respectively. Also, the “solubility in G1/S (log2)” value in the series with HeLa Kyoto [2] was 0.0285. Also, the “solubility change mitosis (log2)” value in the series on HeLa Kyoto [3] was -0.0775. Also, the thermal stability score with HeLa Kyoto [4] (setting [5]) was 0.216; in the series with HeLa Kyoto [4] (cell cycle stage: mitosis), -1.16.

With “MLRTSVLRLLGRTGASRLSLLEDFGPRYYSSGSLSAGDDACDVRAYFTTPIFYVNAAPHIGHLYSALLADALCRHRRLRGPSTAATRFSTGTDEHGLKIQQAAATAGLAPTELCDRVSEQFQQLFQEAGISCTDFIRTTEARHRVAVQHFWGVLKSRGLLYKGVYEGWYCASDECFLPEAKVTQQPGPSGDSFPVSLESGHPVSWTKEENYIFRLSQFRKPLQRWLRGNPQAITPEPFHHVVLQWLDEELPDLSVSRRSSHLHWGIPVPGDDSQTIYVWLDALVNYLTVIGYPNAEFKSWWPATSHIIGKDILKFHAIYWPAFLLGAGMSPPQRICVHSHWTVCGQKMSKSLGNVVDPRTCLNRYTVDGFRYFLLRQGVPNWDCDYYDEKVVKLLNSELADALGGLLNRCTAKRINPSETYPAFCTTCFPSEPGLVGPSVRAQAEDYALVSAVATLPKQVADHYDNFRIYKALEAVSSCVRQTNGFVQRHAPWKLNWESPVDAPWLGTVLHVALECLRVFGTLLQPVTPSLADKLLSRLGVSASERSLGELYFLPRFYGHPCPFEGRRLGPETGLLFPRLDQSRTWLVKAHRT [MARS2]”, the melting temperature with HeLa Kyoto [1] (cell cycle stage: G1/S) was 55.2 °C; in the series on HeLa Kyoto [1] (cell cycle stage: mitosis) it was 55.5 °C. Also, the “solubility in G1/S (log2)” value in the series with HeLa Kyoto [2] turned out to be 0.0996. Also, the “solubility change mitosis (log2)” value in the series with HeLa Kyoto [3] was -0.083. Also, the thermal stability score in the series on HeLa Kyoto [4] (setting [5]) was -3.14; in the series with HeLa Kyoto [4] (cell cycle stage: mitosis), -3.9.

“MLRTTRGPGLGPPLLQAALGLGRAGWHWPAGRAASGGRGRAWLQPTGRETGVQVYNSLTGRKEPLIVAHAEAASWYSCGPTVYDHAHLGHACSYVRFDIIRRILTKVFGCSIVMVMGITDVDDKIIKRANEMNISPASLASLYEEDFKQDMAALKVLPPTVYLRVTENIPQIISFIEGIIARGNAYSTAKGNVYFDLKSRGDKYGKLVGVVPGPVGEPADSDKRHASDFALWKAAKPQEVFWASPWGPGRPGWHIECSAIASMVFGSQLDIHSGGIDLAFPHHENEIAQCEVFHQCEQWGNYFLHSGHLHAKGKEEKMSKSLKNYITIKDFLKTFSPDVFRFFCLRSSYRSAIDYSDSAMLQAQQLLLGLGSFLEDARAYMKGQLACGSVREAMLWERLSSTKRAVKAALADDFDTPRVVDAILGLAHHGNGQLRASLKEPEGPRSPAVFGAIISYFEQFFETVGISLANQQYVSGDGSEATLHGVVDELVRFRQKVRQFALAMPEATGDARRQQLLERQPLLEACDTLRRGLTAHGINIKDRSSTTSTWELLDQRTKDQKSAG [CARS2]”: the melting temperature with HeLa Kyoto [1] (cell cycle stage: G1/S) amounted to 55.4 °C; in the series on HeLa Kyoto [1] (cell cycle stage: mitosis), 54.1 °C. The “solubility in G1/S (log2)” value in the series on HeLa Kyoto [2] stood at 0.0252. Besides, in the series on HeLa Kyoto [3], the “solubility change mitosis (log2)” value is -0.0653. Moreover, the thermal stability score was 0.291 in the series with HeLa Kyoto [4] (setting [5]) and -0.0596 in the series on HeLa Kyoto [4] (cell cycle stage: mitosis).
